Measurements as given in paper PMC11420332 (Biologics : Targets & Therapy, 2024).

Legend:
Assay in all cases: ELISA
[1] = biological target: IL-17C (Homo sapiens, UniProt Q9P0M4)
[2] = biological target: IL-17D (Homo sapiens, UniProt Q8TAD2)
[3] = biological target: IL-17B (Homo sapiens, UniProt Q9UHF5)

Measured: binding result

Sequence of IL-17C (Q9P0M4 19-197): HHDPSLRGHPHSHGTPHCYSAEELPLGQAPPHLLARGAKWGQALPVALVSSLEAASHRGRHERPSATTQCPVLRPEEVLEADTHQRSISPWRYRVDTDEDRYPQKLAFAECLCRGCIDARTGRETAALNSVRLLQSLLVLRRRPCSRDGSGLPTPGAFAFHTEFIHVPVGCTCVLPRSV
Sequence of IL-17D (Q8TAD2 16-202): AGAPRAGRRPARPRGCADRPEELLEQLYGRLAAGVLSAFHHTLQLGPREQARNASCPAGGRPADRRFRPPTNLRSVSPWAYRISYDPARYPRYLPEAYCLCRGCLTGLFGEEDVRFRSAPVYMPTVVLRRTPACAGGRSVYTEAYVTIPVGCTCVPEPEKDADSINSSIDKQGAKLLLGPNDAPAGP
Sequence of IL-17B (Q9UHF5 21-180): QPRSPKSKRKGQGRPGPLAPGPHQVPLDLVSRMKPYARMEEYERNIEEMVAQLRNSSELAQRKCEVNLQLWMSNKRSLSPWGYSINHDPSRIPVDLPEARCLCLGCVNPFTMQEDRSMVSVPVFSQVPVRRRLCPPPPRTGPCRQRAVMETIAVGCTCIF

B1: Ixekizumab (antibody, V domains shown)
VH: QVQLVQSGAEVKKPGSSVKVSCKASGYSFTDYHIHWVRQAPGQGLEWMGVINPMYGTTDYNQRFKGRVTITADESTSTAYMELSSLRSEDTAVYYCARYDYFTGTGVYWGQGTLVTVSS
VL: DIVMTQTPLSLSVTPGQPASISCRSSRSLVHSRGNTYLHWYLQKPGQSPQLLIYKVSNRFIGVPDRFSGSGSGTDFTLKISRVEAEDVGVYYCSQSTHLPFTFGQGTKLEIK
no binding (tested: 100 ng/well): all assays above
